Measured values as given in article PMC8056755 (The Journal of Cell Biology, 2021).
No end group written: not given here.

Experiments:
[1] = molecular target: T1, SEPT7-ΔCC (septin 7 residues 1-331, lacking the coiled coil domain), His-tagged (UniProt Q16181 1-331); test: BLI
T1 sequence: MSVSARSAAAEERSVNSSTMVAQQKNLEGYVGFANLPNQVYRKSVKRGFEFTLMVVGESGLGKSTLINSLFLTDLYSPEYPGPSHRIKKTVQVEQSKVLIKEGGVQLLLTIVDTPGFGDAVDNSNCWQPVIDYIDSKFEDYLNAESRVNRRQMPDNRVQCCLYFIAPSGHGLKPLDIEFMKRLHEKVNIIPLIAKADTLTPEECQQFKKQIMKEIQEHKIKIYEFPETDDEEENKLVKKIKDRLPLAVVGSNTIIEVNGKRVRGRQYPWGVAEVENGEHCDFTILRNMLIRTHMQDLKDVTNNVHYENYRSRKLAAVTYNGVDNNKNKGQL

[2] = molecular target: T2, purified His-tagged septin 7 (full length) (UniProt Q16181 1-437); test: BLI
T2 sequence: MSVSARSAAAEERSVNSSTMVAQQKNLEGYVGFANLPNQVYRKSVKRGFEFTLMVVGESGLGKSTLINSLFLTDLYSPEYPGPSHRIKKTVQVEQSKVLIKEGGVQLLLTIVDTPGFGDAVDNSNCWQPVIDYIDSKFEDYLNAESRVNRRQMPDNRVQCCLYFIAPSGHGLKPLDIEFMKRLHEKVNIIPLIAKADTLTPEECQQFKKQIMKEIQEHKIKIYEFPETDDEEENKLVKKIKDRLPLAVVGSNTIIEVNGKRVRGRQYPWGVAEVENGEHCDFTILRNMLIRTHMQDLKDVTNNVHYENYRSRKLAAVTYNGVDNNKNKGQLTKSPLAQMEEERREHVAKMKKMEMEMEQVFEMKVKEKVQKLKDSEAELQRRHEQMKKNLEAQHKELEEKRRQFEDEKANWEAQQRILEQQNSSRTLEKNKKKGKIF

[3] = molecular target: T2, purified His-tagged septin 7 (full …); test: proteoliposome coflotation

## MEHLERCEWLLRGTLVRAAVRRY (also: biotinylated, site not given here) [biotinylated FIT2 N-terminal loop peptide (NTL, residues 1-23)]
[1]
  binding result: binds
[2]
  binding result: binds

B1: FIT2-Strep-His8-GFP fusion protein, reconstituted into proteoliposomes (natural protein)
chain: MEHLERCEWLLRGTLVRAAVRRYLPWALVASMLAGSLLKELSPLPESYLSNKRNVLNVYFVKVAWAWTFCLLLPFIALTNYHLTGKAGLVLRRLSTLLVGTAIWYICTSIFSNIEHYTGSCYQSPALEGVRKEHQSKQQCHQEGGFWHGFDISGHSFLLTFCALMIVEEMSVLHEVKTDRSHCLHTAITTLVVALGILTFIWVLMFLCTAVYFHNLSQKVFGTLFGLLSWYGTYGFWYPKAFSPGLPPQSCSLNLKQDSYKK
[3]
  binding result: binds
